First the molecules themselves.
B1: recombinant soluble human TL1A (ligand)
chain: ALKGQEFAPSHQQVYAPLRADGDKPRAHLTVVRQTPTQHFKNQFPALHWEHELGLAFTKNRMNYTNKFLLIPESGDYFIYSQVTFRGMTSECSEIRQAGRPNKPDSITVVITKVTDSYPEPTQLLMGTKSVCEVGSNWFQPIYLGAMFSLQEGDKLMVNVSDISLVDYTKEDKTFFGAFLL
B2: anti-TL1A antibody 7D4 (antibody, human IgG1, kappa, V domains shown)
VH: QVQLVQSGAEVKKPGASVKVSCKASGYTFTSYGINWVRQAPGQGLEWMGWISTYNGNTNSAQKLQGRVTMTTDTSTSTAYMELRSLRSDDTAVYYCARAHSSSWFDAFDIWGQGTMVTVSS
VL: AIQLTQSPSSLSASVGDRVTITCRASQGISSALAWYQQKPGKAPKLLIYDASSLESGVPSRFSGSGSGTDFTLTISSLQPEDFATYYCQQFNSYPLTFGGGTKVEIKR
notes: Human IgG1-3m, kappa; also called 7D4-hIgG1-3m
B3: anti-TL1A antibody 26B11 (antibody, V domains shown)
VH: QVQLVESGGGVVQPGRSLRLSCAASGFTFSSFAMHWVRQAPGKGLEWVALIPFDGSSNYYADSVKGRFTISRDNSKNTLYLQMNSLRAEDTAVYYCARDRNYYGSGSFSFDAFDIWGQGTLVTVSS
VL: DIQMTQSPSSLSASVGDRVTITCRASQGISNWLAWYQQKPEKAPKSLIYAASSLQSGVPSRFSGSGSGTDFTLTISSLQPEDFATYYCQQYNSYPYTFGQGTKLEIKR
notes: also called 26B11-hIgG1-3m
B4: 1D1 1.27 (antibody, human IgG1, kappa, V domains shown)
VH: QVQLVQSGAEVKKPGASVKVSCKASGYDFTYYGISWVRQAPGQGLEWMGWISTYNGNTHYARMLQGRVTMTTDTSTRTAYMELRSLRSDDTAVYYCARENYYGSGSYRGGMDVWGQGTTVTVSS
VL: EIVLTQSPATLSLSPGERATLSCRASQSVSSYLAWYQQKPGQAPRLLIYDASNRATGIPARFSGSGSGTDFTLTISSLEPEDFAVYYCQQRSNWPWTFGQGTKVEIKR
notes: Expressed as IgG1
B5: 1D1 D37 (antibody, IgG1, V domains shown)
VH: B4 VH with D28S, N57G
VL: B4 VL
notes: same light chain as 1D1; also called 1D1-VH-37
B6: 1D1 with heavy chain mutation S28D (antibody, V domains shown)
VH: B4 VH with H59N
VL: EIVLTQSPATLSLSPGERATLSCRASQSVSSYLAWYQQKPGQAPRLLIYDASNRATGIPARFSGSGSGTDFTLTISSLEPEDFAVYYCQQRSNWPWTFGQGTKVEIK
notes: Point mutant of 1D1 CDR-H1
B7: 1D1 D38 (antibody, V domains shown)
VH: B4 VH with D28S, N57V
VL: B4 VL
notes: IgG with triple mutant Fc as for 1D1 D37
B8: 1D1 D24 (antibody, V domains shown)
VH: B4 VH with D28S, T53P
VL: B4 VL
notes: as for B7
B9: 1D1 DH3 (antibody, V domains shown)
VH: B4 VH with D28S, R62Q
VL: B4 VL
notes: as for B7
B10: 1D1 D39 (antibody, V domains shown)
VH: B4 VH with D28S, H59N, S106A, V113A
VL: B4 VL
notes: as for B7
B11: 1D1 with heavy chain mutation S28Q (antibody, V domains shown)
VH: B4 VH with D28Q, H59N
VL: B6 VL
notes: Point mutant of 1D1 CDR-H1

Assay [1] addresses T1, DR3 on TF-1 cells (human, UniProt Q93038 25-417).
T1 sequence (looked up): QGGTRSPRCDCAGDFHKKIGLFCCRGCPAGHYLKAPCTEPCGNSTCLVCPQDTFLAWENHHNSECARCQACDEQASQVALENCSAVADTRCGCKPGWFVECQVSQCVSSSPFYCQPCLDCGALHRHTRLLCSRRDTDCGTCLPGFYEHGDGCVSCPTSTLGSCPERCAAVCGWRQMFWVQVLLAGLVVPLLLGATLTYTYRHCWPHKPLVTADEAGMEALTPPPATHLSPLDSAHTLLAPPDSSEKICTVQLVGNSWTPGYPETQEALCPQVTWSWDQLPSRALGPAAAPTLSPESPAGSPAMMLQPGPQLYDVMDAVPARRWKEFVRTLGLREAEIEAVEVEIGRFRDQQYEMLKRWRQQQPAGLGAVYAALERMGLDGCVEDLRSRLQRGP
In words: cell-based or functional assay.

Assay [2] concerns the target T2, recombinant soluble cynomolgus monkey TL1A (cynomolgus monkey, UniProt O95150 72-251 (human entry)).
T2 construct: also called cyno rsTL1A; cyno TL1A
T2 chain: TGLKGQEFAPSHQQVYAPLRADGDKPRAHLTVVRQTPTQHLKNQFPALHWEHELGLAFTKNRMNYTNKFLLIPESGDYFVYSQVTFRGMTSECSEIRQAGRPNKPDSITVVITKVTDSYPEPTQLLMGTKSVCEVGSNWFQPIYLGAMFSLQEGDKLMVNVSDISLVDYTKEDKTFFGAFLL
In words: SPR, IgG captured on anti-hIgG, TL1A injected. (In general: Surface plasmon resonance follows binding to a sensor surface in real time, without labels.)
From the text: (§1) To characterize the binding kinetics of the anti-TL1A antibodies to TL1A by surface plasmon resonance, each anti-TL1A antibody was captured via directly immobilized anti-human IgG (GE Healthcare) onto a carboxymethylated dextran sensor chip surface (CM5) using a Biacore T100 or T200 instrument. Anti-human IgG was immobilized through amine coupling to densities of approximately 4,000-13,000 response units (RU). […] At the end of each cycle, the entire anti-human IgG (hIgG) surface was regenerated by a 30-second pulse of 3M MgCl₂ followed by two consecutive 15-second pulses of PBS-NET. All injections were performed at 25° C. at a collection rate of 10 Hz. All sensorgrams were double referenced by using both a control surface and buffer injections. Rate constants were determined by fitting the data to a 1:1 model in Biacore T100, T200 evaluation software v1.0, or BIAevaluation software v4.1.1 and the equation KD=kd/kₐ.
(§2) The anti-TL1A antibodies were captured onto immobilized anti-human Fc on a CM5 sensor chip on a Biacore T100 instrument. […] Rate constants shown in the table were determined by fitting to a 1:1 Langmuir binding model in BiaEvaluation v4.1.1 (fit lines shown in red). Data shown are the average and standard deviation of at least 3 independent surfaces between 2 experiments.

Assay [3] deals with B1. In words: SPR, IgG captured on anti-hIgG, TL1A injected.
From the text: as §1, §2
The target of assay [4] is T3, recombinant soluble rat TL1A (rat, UniProt Q8K3Y7 76-252).
T3 construct: also called rat rsTL1A
T3 sequence: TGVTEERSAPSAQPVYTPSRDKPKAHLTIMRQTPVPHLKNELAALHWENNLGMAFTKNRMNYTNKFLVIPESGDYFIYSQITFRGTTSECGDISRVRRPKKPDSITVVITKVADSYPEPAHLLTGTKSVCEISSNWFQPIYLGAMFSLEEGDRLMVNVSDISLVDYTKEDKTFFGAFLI
In words: SPR, IgG captured on anti-hIgG, TL1A injected.
From the text: (§3) The antibodies were captured via directly immobilized anti-human IgG (GE Healthcare) onto a carboxymethylated dextran sensor chip surface (CM5) using a Biacore T100 or T200 instrument. Anti-human IgG was immobilized through amine coupling to densities of approximately 4,000-13,000 response units (RU). […] At the end of each cycle, the entire anti-hIgG surface was regenerated by a 30-second pulse of 3M MgCl₂ followed by two consecutive 15-second pulses of PBS-NET. […] All injections were performed at 25° C. at a collection rate of 10 Hz. All sensorgrams were double referenced by using both a control surface and buffer injections. Rate constants were determined by fitting the data to a 1:1 model in Biacore T100, T200 evaluation software v1.0, or BIAevaluation software v4.1.1 and the equation KD=Kd/kₐ.
(§4) At the highest cytokine concentrations, the dissociation phase was sometimes extended to 60 minutes to achieve at least a 5% decrease in binding signal.

The target in assay [5] is B1. In words: SPR, IgG captured on anti-hIgG, TL1A injected; off rate too slow to measure.
The target of assay [6] is B1. In words: KinExA, equilibrium in solution. On the technique in general: Kinetic exclusion samples the free partner from a solution-phase mixture.
The target of assay [7] is T4, endogenous TL1A of stimulated human peripheral blood (human, UniProt O95150 72-251, limits assumed).
T4 sequence (looked up): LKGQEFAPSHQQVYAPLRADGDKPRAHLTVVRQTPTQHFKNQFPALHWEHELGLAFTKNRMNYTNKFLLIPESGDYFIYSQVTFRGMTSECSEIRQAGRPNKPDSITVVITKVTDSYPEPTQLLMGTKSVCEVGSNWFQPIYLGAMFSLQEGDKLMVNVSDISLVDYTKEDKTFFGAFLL
Put plainly: cell-based or functional assay.

The target of assay [8] is B1. Put plainly: cell-based or functional assay.
Assay [9] has as its target T5, recombinant soluble murine TL1A (mouse, UniProt Q5UBV8 75-252).
T5 construct: also called murine rsTL1A; mouse TL1A
T5 chain: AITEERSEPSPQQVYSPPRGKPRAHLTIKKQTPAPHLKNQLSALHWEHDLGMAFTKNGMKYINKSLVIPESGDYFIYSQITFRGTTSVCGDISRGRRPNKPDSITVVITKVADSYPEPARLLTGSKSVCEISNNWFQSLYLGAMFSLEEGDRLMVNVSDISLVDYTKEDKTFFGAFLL
Put plainly: SPR, IgG captured on anti-hIgG, TL1A injected.
From the text: as §3, §4

For assay [10], the target named is T6, recombinant soluble rabbit TL1A (rabbit).
T6 construct: also called rabbit rsTL1A
T6 chain: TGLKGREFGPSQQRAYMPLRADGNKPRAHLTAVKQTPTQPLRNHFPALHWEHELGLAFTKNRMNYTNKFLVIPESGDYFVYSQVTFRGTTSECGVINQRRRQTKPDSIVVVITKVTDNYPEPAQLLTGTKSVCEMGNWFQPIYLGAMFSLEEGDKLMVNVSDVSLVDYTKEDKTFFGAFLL
In words: SPR, IgG captured on anti-hIgG, TL1A injected.
From the text: as §3, §4

Assay [11] addresses T2, recombinant soluble cynomolgus monkey …. Put plainly: SPR, IgG captured on anti-hIgG, TL1A injected.
From the text: as §3, §4
Assay [12] has the same target. In words: SPR, IgG captured on anti-hIgG, TL1A injected.
In assay [13] the target is T5, recombinant soluble murine TL1A. Put plainly: SPR, IgG captured on anti-hIgG, TL1A injected.
Assay [14] concerns the target B1. Put plainly: SPR, IgG captured on anti-hIgG, TL1A injected. The source holds these as a separate data set.
For assay [15], the target named is B1. In words: SPR, IgG captured on anti-hIgG, TL1A injected. This is another data set of the same source.
Method: Biacore analysis was performed using T-200 biosensor, series S CM5 chips and approximately 4000 RU (response units) of an anti-human IgG (GE Healthcare), immobilized in 10 mM sodium acetate immobilization buffer at pH 5.0. Assay conditions were established to minimize the influence of mass transfer, avidity, and rebinding events, as described below. A blank immobilization was carried out on a separate flow cell for reference subtraction. The purified IgGs were diluted in running buffer (PBS, 300 mM sodium chloride, 3.2 mM ethylenediaminetetraacetic acid, 0.01% Tween20) and low levels (<30 RU) captured using a flow rate of 100 μl/min for 2 min, to reduce possible rebinding by the trimeric TL1A. […] Reference-subtracted sensorgrams for each concentration were analyzed using Biacore T-200 evaluation software (v1.0).
Assay [16] addresses B1. Put plainly: binding test of the 1D1 point mutants, method not named.

This note sets out measurements from patent US20260210971A1 (Pfizer, published 2026).

Substitutions are numbered along the chain they refer to. Like-named read-outs stand apart in the source and are kept apart here.

For the molecule B1, in assay [1], the “NFκB-luciferase activity in TF-1-NFκB-luciferase cells, EC50” value turned out to be 149 pM; the “NFκB-luciferase activity, EC50 in the absence of isotype control antibody” value is 103 pM; the “NFκB-luciferase activity, EC50 in the presence of isotype control antibody” value is 110 pM; the “caspase activity in TF-1 cells with cycloheximide, EC50” value amounted to 90 pM.
In the case of B2, in [2], the Kd stood at 6900 pM, the koff was 0.0014 s⁻¹ and the kon worked out at 200000 M⁻¹ s⁻¹. In addition, in assay [3], the Kd amounted to 900 pM, the koff worked out at 0.0004 s⁻¹ and the kon turned out to be 400000 M⁻¹ s⁻¹.
Consider B3, for which, in assay [2], the dissociation constant Kd is 36000 pM, the koff stood at 0.006 s⁻¹ and the kon worked out at 200000 M⁻¹ s⁻¹. For the same molecule, in [3], the Kd was 600 pM, the dissociation rate constant (koff) worked out at 0.00011 s⁻¹ and the kon was 170000 M⁻¹ s⁻¹.
For B4, the Kd is 10900 pM in assay [4]; below 100 pM in assay [5]; 7.69 pM in assay [6]; 1640 pM in assay [9]; 478 pM in assay [10]; 220 pM in assay [11]. For the same molecule, the koff in assay [4] is 0.0072 s⁻¹; in [9], 0.00043 s⁻¹; in [10], 0.00014 s⁻¹; in assay [11] it was 8e-05 s⁻¹. Moreover, the kon in assay [4] amounted to 670000 M⁻¹ s⁻¹; in assay [9] it was 270000 M⁻¹ s⁻¹; in assay [10], 300000 M⁻¹ s⁻¹; in assay [11] it was 390000 M⁻¹ s⁻¹. For the same molecule, the t1/2 in assay [4] came to 1.6 min; in assay [9] it was 26.9 min; in assay [10], 82.1 min; in assay [11], 141 min. In [7], the “HWB Assay, average IC50” value turned out to be 0.968 pM. The “Caspase Assay, average IC50” value in assay [8] was determined as 70.2 pM. In assay [8], the “NFkB Assay, average IC50” value was found to be 140 pM.
Take B5: the Kd in [12] was 335 pM; in assay [13] it was 787 pM; in [14], 305 pM; in assay [15] it was 326 pM. The dissociation rate constant (koff) in assay [15] stood at 0.00035 s⁻¹. Besides, the kon in [15] is 1.26e+06 M⁻¹ s⁻¹.
As for B6, the Kd in assay [16] was determined as 420 pM.
In the case of B7, the Kd was 611 pM in [12], 1290 pM in assay [13], 687 pM in assay [14] and 440 pM in assay [15]. In addition, the koff in assay [15] stood at 0.000463 s⁻¹. In [15], the kon was determined as 1.05e+06 M⁻¹ s⁻¹.
B8: the Kd in [12] came out at 942 pM; in assay [13], 804 pM; in assay [14], 932 pM; in [15], 394 pM. Moreover, the koff in [15] worked out at 0.000806 s⁻¹. For the same molecule, the kon in assay [15] is 2.04e+06 M⁻¹ s⁻¹.
For the molecule B9, the dissociation constant Kd is 675 pM in assay [12], 620 pM in assay [13], 560 pM in assay [14] and 412 pM in assay [15]. The off-rate (koff) in assay [15] came out at 0.00102 s⁻¹. Also, the association rate constant (kon) in [15] was determined as 2.49e+06 M⁻¹ s⁻¹.
Turning to B10, the equilibrium dissociation constant (Kd) in assay [12] amounted to 396 pM; in assay [13], 613 pM; in [14], 441 pM; in assay [15], 442 pM. The koff in assay [15] was 0.000355 s⁻¹. The kon in assay [15] was 784000 M⁻¹ s⁻¹.
In the case of B11, the dissociation constant Kd in [16] worked out at 6800 pM.

As a reminder, the Kd is a measure of binding affinity in units of concentration. Broadly, the koff is the rate constant with which the complex falls apart. One may read the kon as a measure of how fast the partners come together.
